Where a chain is given by its changes, count along the chain named. Numbers in names are those of the source. One block for each binder: values may come before it.
How the values were obtained:
[1] = molecular target: POLRMT Δ42;TFAM Δ42;TFB2M Δ59 (human;human;human, UniProt O00411;Q00059;Q9H5Q4 43-1230;43-246;60-396, ||); experiment: SEC and DLS
[2] = molecular target: POLRMT Δ42;TFB2M Δ59 (human;human, UniProt O00411;Q9H5Q4 43-1230;60-396, |); experiment: cryo-EM structure 3.15 A
[3] = molecular target: Human mitochondrial RNA polymerase (POLRMT) Δ42 (human, UniProt O00411 43-1230); experiment: cryo-EM structure
Chain of Human mitochondrial RNA polymerase (POLRMT) Δ42 (O00411 43-1230, stated change not applied): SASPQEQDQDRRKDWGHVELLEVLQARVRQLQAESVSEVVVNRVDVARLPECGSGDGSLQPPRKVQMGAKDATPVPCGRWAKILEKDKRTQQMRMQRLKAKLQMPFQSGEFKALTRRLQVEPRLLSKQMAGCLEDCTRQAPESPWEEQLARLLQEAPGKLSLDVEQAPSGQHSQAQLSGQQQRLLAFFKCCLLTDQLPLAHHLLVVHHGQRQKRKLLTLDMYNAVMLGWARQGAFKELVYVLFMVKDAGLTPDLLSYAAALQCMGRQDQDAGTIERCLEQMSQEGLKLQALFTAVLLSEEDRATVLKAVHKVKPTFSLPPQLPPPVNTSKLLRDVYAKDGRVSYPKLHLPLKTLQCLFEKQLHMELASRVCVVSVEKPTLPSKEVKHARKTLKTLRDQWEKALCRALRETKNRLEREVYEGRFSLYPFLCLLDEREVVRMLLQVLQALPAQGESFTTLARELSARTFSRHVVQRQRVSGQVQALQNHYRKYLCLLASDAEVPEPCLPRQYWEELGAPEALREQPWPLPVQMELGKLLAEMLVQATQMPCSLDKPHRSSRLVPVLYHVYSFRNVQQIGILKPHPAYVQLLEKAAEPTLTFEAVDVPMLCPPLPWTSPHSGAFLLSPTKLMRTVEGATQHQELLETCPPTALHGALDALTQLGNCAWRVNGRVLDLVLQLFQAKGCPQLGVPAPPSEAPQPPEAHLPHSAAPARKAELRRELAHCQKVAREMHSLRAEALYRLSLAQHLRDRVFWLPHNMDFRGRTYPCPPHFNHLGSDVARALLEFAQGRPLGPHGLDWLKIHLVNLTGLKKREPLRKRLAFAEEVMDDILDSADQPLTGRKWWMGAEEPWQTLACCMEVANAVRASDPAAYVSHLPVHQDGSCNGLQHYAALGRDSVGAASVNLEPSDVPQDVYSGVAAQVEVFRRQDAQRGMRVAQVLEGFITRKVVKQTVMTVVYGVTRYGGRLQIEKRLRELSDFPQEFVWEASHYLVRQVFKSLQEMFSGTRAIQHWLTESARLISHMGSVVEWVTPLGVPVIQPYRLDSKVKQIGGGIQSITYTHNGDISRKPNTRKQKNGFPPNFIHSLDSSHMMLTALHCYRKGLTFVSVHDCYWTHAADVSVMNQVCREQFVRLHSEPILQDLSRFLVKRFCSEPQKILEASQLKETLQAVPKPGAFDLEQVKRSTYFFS

[4] = molecular target: T1, POLRMT-LSPDNA(−42to+9)-TFAM (P-D-T) complex (human, UniProt O00411 43-1230; Q00059 43-245); experiment: fluorescence polarisation
T1 sequence (O00411 43-1230, one chain of several): as the sequence (O00411 43-1230, stated change not applied) above

[5] = molecular target: POLRMT Δ42;TFAM Δ42;TFB2M Δ41, Alexa488 (human;human;human, UniProt O00411;Q00059;Q9H5Q4 43-1230;43-246;42-396, ||); experiment: fluorescence polarization
Chain of POLRMT Δ42;TFAM Δ42;TFB2M Δ41, Alexa488 (O00411 43-1230, stated change not applied, one chain of several): as the sequence (O00411 43-1230, stated change not applied) above

[6] = molecular target: T1, POLRMT-LSPDNA(−42to+9)-TFAM (P-D-T) …; experiment: fluorescence polarisation; remark: listed apart in the source

Chain of POLRMT Δ42;TFAM Δ42;TFB2M Δ59 (O00411 43-1230, stated change not applied, one chain of several): as the sequence (O00411 43-1230, stated change not applied) above
Chain of POLRMT Δ42;TFB2M Δ59 (O00411 43-1230, stated change not applied, one chain of several): as the sequence (O00411 43-1230, stated change not applied) above

binding result [3]: binds
B3: Human mitochondrial transcription factor A (TFAM) Δ42 (natural protein, UniProt Q00059 43-245, looked up)
chain: SSVLASCPKKPVSSYLRFSKEQLPIFKAQNPDAKTTELIRRIAQRWRELPDSKKKIYQDAYRAEWQVYKEEISRFKEQLTPSQIMSLEKEIMDKHLKRKAMTKKKELTLLGKPKRPRSAYNVYVAERFQEAKGDSPQEKLKTVKENWKNLSDSEKELYIQHAKEDETRYHNEMKSWEEQMIEVGRKDLLRRTIKKQRKYGAEE

binding result [3]: binds
B4: Human transcription factor 2 (TFB2M) Δ59 (natural protein, UniProt Q9H5Q4 60-396, looked up)
chain: PPRKASKASLDFKRYVTDRRLAETLAQIYLGKPSRPPHLLLECNPGPGILTQALLEAGAKVVALESDKTFIPHLESLGKNLDGKLRVIHCDFFKLDPRSGGVIKPPAMSSRGLFKNLGIEAVPWTADIPLKVVGMFPSRGEKRALWKLAYDLYSCTSIYKFGRIEVNMFIGEKEFQKLMADPGNPDLYHVLSVIWQLACEIKVLHMEPWSSFDIYTRKGPLENPKRRELLDQLQQKLYLIQMIPRQNLFTKNLTPMNYNIFFHLLKHCFGRRSATVIDHLRSLTPLDARDILMQIGKQEDEKVVNMHPQDFKTLFETIERSKDCAYKWLYDETLEDR

binding result [4]: binds
B5: Human transcription factor 2 (TFB2M) SGG-AAA (natural protein, UniProt Q9H5Q4 60-396, looked up)
chain: B4 chain with S99A, G100A, G101A

binding result [4]: binds
B8: Human transcription factor 2 (TFB2M) (GS)3-loop (natural protein, UniProt Q9H5Q4 21-396, looked up)
chain: GRFCILGSEAATRKHLPARNHCGLSDSSPQLWPEPDFRNPPRKASKASLDFKRYVTDRRLAETLAQIYLGKPSRPPHLLLECNPGPGILTQALLEAGAKVVALESDKTFIPHLESLGKNLDGKLRVIHCDFFKLDPGSGSGSGPPAMSSRGLFKNLGIEAVPWTADIPLKVVGMFPSRGEKRALWKLAYDLYSCTSIYKFGRIEVNMFIGEKEFQKLMADPGNPDLYHVLSVIWQLACEIKVLHMEPWSSFDIYTRKGPLENPKRRELLDQLQQKLYLIQMIPRQNLFTKNLTPMNYNIFFHLLKHCFGRRSATVIDHLRSLTPLDARDILMQIGKQEDEKVVNMHPQDFKTLFETIERSKDCAYKWLYDETLEDR

Kd [6]: 6.1 nM
B9: Alexa488-Δ41 TFB2M (natural protein, human, UniProt Q9H5Q4 42-396, looked up)
chain: CGLSDSSPQLWPEPDFRNPPRKASKASLDFKRYVTDRRLAETLAQIYLGKPSRPPHLLLECNPGPGILTQALLEAGAKVVALESDKTFIPHLESLGKNLDGKLRVIHCDFFKLDPRSGGVIKPPAMSSRGLFKNLGIEAVPWTADIPLKVVGMFPSRGEKRALWKLAYDLYSCTSIYKFGRIEVNMFIGEKEFQKLMADPGNPDLYHVLSVIWQLACEIKVLHMEPWSSFDIYTRKGPLENPKRRELLDQLQQKLYLIQMIPRQNLFTKNLTPMNYNIFFHLLKHCFGRRSATVIDHLRSLTPLDARDILMQIGKQEDEKVVNMHPQDFKTLFETIERSKDCAYKWLYDETLEDR
modifications: Alexa Fluor 488 C5 maleimide label (labelling efficiency ~76%)

More lines, now with the values behind:

B1: LSP -43 to +13, -4 to +1 bubble (56 bp) (dsDNA)
DNA 1: ATGTGTTAGTTGGGGGGTGACTGTTAAAAGTGCATACCGAACAAAGATAAAATTTG
DNA 2: CAAATTTTATCTCCAGGCGGTATGCACTTTTAACAGTCACCCCCCAACTAACACAT
binding result [1]: binds

B2: LSP bubble with pppGpGpA RNA (slipped IC3) (mixed)
DNA 1: B1 DNA 1
DNA 2: B1 DNA 2
?: GGA
modifications: RNA 5' triphosphate
binding result [2]: binds

B6: LSP -42 to +9 duplex (dsDNA)
DNA 1: TGTGTTAGTTGGGGGGTGACTGTTAAAAGTGCATACCGCCAAAAGATAAAA
DNA 2: TTTTATCTTTTGGCGGTATGCACTTTTAACAGTCACCCCCCAACTAACACA
Kd [5]: 6.1 nM

B7: Human transcription factor 2 (TFB2M) Y209A (natural protein, UniProt Q9H5Q4 21-396, looked up)
chain: B8 chain with G137R, S140G, G141V, S142I, G143K, Y189A
binding result [4]: binds

From article PMC11642874 (bioRxiv, 2024)
